The source of these data is article PMC10786891, “Massively parallel profiling of RNA-targeting CRISPR-Cas13d”.

As usually defined, the Kd is the equilibrium constant for the complex coming apart. Read a high Kd as weaker binding.

To fix the notation:
B1: target 1 insC 3' of 17,insC 3' of 16 (mixed)
RNA 1: CACCCGUGCAAAAAUGCAGGGGUCUAAAACUGAGCGGAUAACCUCUCUAUGG
RNA 2: GGGAAUGGAUCCACAUCUACGAAUUCGUACCAUAGCACGAGGUUAUCCGCUCACCGAGAUCGGAAGAGCACACGU
B2: target 1 C6U,A9G (mixed)
RNA 1: CACCCGUGCAAAAAUGCAGGGGUCUAAAACUGAGCGGAUAACCUCUCUAUGG
RNA 2: GGGAAUGGAUCCACAUCUACGAAUUCGUACCAUAGAGAGGUUGUCUGCUCACCGAGAUCGGAAGAGCACACGU
B3: target 1 insA 3' of 7,insC 3' of 1 (mixed)
RNA 1: CACCCGUGCAAAAAUGCAGGGGUCUAAAACUGAGCGGAUAACCUCUCUAUGG
RNA 2: GGGAAUGGAUCCACAUCUACGAAUUCGUACCAUAGAGAGGUUAUCACGCUCACCCGAGAUCGGAAGAGCACACGU
B4: target 1 insA 3' of 17,insU 3' of 6 (mixed)
RNA 1: CACCCGUGCAAAAAUGCAGGGGUCUAAAACUGAGCGGAUAACCUCUCUAUGG
RNA 2: GGGAAUGGAUCCACAUCUACGAAUUCGUACCAUAGAAGAGGUUAUCCUGCUCACCGAGAUCGGAAGAGCACACGU
B5: target 1 insC 3' of 19,insA 3' of 6 (mixed)
RNA 1: CACCCGUGCAAAAAUGCAGGGGUCUAAAACUGAGCGGAUAACCUCUCUAUGG
RNA 2: GGGAAUGGAUCCACAUCUACGAAUUCGUACCAUCAGAGAGGUUAUCCAGCUCACCGAGAUCGGAAGAGCACACGU
B6: target 1 del11,del15 (mixed)
RNA 1: CACCCGUGCAAAAAUGCAGGGGUCUAAAACUGAGCGGAUAACCUCUCUAUGG
RNA 2: GGGAAUGGAUCCACAUCUACGAAUUCGUACCAUAGAAGGUAUCCGCUCACCGAGAUCGGAAGAGCACACGU
B7: target 1 insU 3' of 18,insU 3' of 2 (mixed)
RNA 1: CACCCGUGCAAAAAUGCAGGGGUCUAAAACUGAGCGGAUAACCUCUCUAUGG
RNA 2: GGGAAUGGAUCCACAUCUACGAAUUCGUACCAUAUGAGAGGUUAUCCGCUCUACCGAGAUCGGAAGAGCACACGU
B8: target 1 insA 3' of 15,insA 3' of 15 (mixed)
RNA 1: CACCCGUGCAAAAAUGCAGGGGUCUAAAACUGAGCGGAUAACCUCUCUAUGG
RNA 2: GGGAAUGGAUCCACAUCUACGAAUUCGUACCAUAGAGAAAGGUUAUCCGCUCACCGAGAUCGGAAGAGCACACGU
B9: target 1 C7U,U8C (mixed)
RNA 1: CACCCGUGCAAAAAUGCAGGGGUCUAAAACUGAGCGGAUAACCUCUCUAUGG
RNA 2: GGGAAUGGAUCCACAUCUACGAAUUCGUACCAUAGAGAGGUUACUCGCUCACCGAGAUCGGAAGAGCACACGU
B10: target 1 insG 3' of 22,insC 3' of 22 (mixed)
RNA 1: CACCCGUGCAAAAAUGCAGGGGUCUAAAACUGAGCGGAUAACCUCUCUAUGG
RNA 2: GGGAAUGGAUCCACAUCUACGAAUUCGUACGCCAUAGAGAGGUUAUCCGCUCACCGAGAUCGGAAGAGCACACGU
B11: target 1 insG 3' of 18,insU 3' of 5 (mixed)
RNA 1: CACCCGUGCAAAAAUGCAGGGGUCUAAAACUGAGCGGAUAACCUCUCUAUGG
RNA 2: GGGAAUGGAUCCACAUCUACGAAUUCGUACCAUAGGAGAGGUUAUCCGUCUCACCGAGAUCGGAAGAGCACACGU
B12: target 1 insA 3' of 6,insU 3' of 5 (mixed)
RNA 1: CACCCGUGCAAAAAUGCAGGGGUCUAAAACUGAGCGGAUAACCUCUCUAUGG
RNA 2: GGGAAUGGAUCCACAUCUACGAAUUCGUACCAUAGAGAGGUUAUCCAGUCUCACCGAGAUCGGAAGAGCACACGU
B13: target 1 insG 3' of 18,insA 3' of 15 (mixed)
RNA 1: CACCCGUGCAAAAAUGCAGGGGUCUAAAACUGAGCGGAUAACCUCUCUAUGG
RNA 2: GGGAAUGGAUCCACAUCUACGAAUUCGUACCAUAGGAGAAGGUUAUCCGCUCACCGAGAUCGGAAGAGCACACGU
B14: target 1 G5U,G12U (mixed)
RNA 1: CACCCGUGCAAAAAUGCAGGGGUCUAAAACUGAGCGGAUAACCUCUCUAUGG
RNA 2: GGGAAUGGAUCCACAUCUACGAAUUCGUACCAUAGAGAGUUUAUCCUCUCACCGAGAUCGGAAGAGCACACGU
B15: target 1 insU 3' of 18,insU 3' of 7 (mixed)
RNA 1: CACCCGUGCAAAAAUGCAGGGGUCUAAAACUGAGCGGAUAACCUCUCUAUGG
RNA 2: GGGAAUGGAUCCACAUCUACGAAUUCGUACCAUAUGAGAGGUUAUCUCGCUCACCGAGAUCGGAAGAGCACACGU
B16: target 1 complement block 4-12 (mixed)
RNA 1: CACCCGUGCAAAAAUGCAGGGGUCUAAAACUGAGCGGAUAACCUCUCUAUGG
RNA 2: GGGAAUGGAUCCACAUCUACGAAUUCGUACCAUAGAGAGCAAUAGGCGUCACCGAGAUCGGAAGAGCACACGU
B17: target 1 insU 3' of 1,insU 3' of 1 (mixed)
RNA 1: CACCCGUGCAAAAAUGCAGGGGUCUAAAACUGAGCGGAUAACCUCUCUAUGG
RNA 2: GGGAAUGGAUCCACAUCUACGAAUUCGUACCAUAGAGAGGUUAUCCGCUCAUUCCGAGAUCGGAAGAGCACACGU
B18: target 1 C7A,G15A (mixed)
RNA 1: CACCCGUGCAAAAAUGCAGGGGUCUAAAACUGAGCGGAUAACCUCUCUAUGG
RNA 2: GGGAAUGGAUCCACAUCUACGAAUUCGUACCAUAGAAAGGUUAUACGCUCACCGAGAUCGGAAGAGCACACGU
B19: target 1 G5C,A20C (mixed)
RNA 1: CACCCGUGCAAAAAUGCAGGGGUCUAAAACUGAGCGGAUAACCUCUCUAUGG
RNA 2: GGGAAUGGAUCCACAUCUACGAAUUCGUACCCUAGAGAGGUUAUCCCCUCACCGAGAUCGGAAGAGCACACGU
B20: target 1 insU 3' of 15,insA 3' of 4 (mixed)
RNA 1: CACCCGUGCAAAAAUGCAGGGGUCUAAAACUGAGCGGAUAACCUCUCUAUGG
RNA 2: GGGAAUGGAUCCACAUCUACGAAUUCGUACCAUAGAGUAGGUUAUCCGCAUCACCGAGAUCGGAAGAGCACACGU
B21: target 1 insC 3' of 8,insA 3' of 7 (mixed)
RNA 1: CACCCGUGCAAAAAUGCAGGGGUCUAAAACUGAGCGGAUAACCUCUCUAUGG
RNA 2: GGGAAUGGAUCCACAUCUACGAAUUCGUACCAUAGAGAGGUUAUCCACGCUCACCGAGAUCGGAAGAGCACACGU
B22: target 1 insU 3' of 20,insU 3' of 2 (mixed)
RNA 1: CACCCGUGCAAAAAUGCAGGGGUCUAAAACUGAGCGGAUAACCUCUCUAUGG
RNA 2: GGGAAUGGAUCCACAUCUACGAAUUCGUACCAUUAGAGAGGUUAUCCGCUCUACCGAGAUCGGAAGAGCACACGU
B23: target 1 insG 3' of 20,insC 3' of 20 (mixed)
RNA 1: CACCCGUGCAAAAAUGCAGGGGUCUAAAACUGAGCGGAUAACCUCUCUAUGG
RNA 2: GGGAAUGGAUCCACAUCUACGAAUUCGUACCAGCUAGAGAGGUUAUCCGCUCACCGAGAUCGGAAGAGCACACGU
B24: target 1 insA 3' of 22,insC 3' of 5 (mixed)
RNA 1: CACCCGUGCAAAAAUGCAGGGGUCUAAAACUGAGCGGAUAACCUCUCUAUGG
RNA 2: GGGAAUGGAUCCACAUCUACGAAUUCGUACACAUAGAGAGGUUAUCCGCCUCACCGAGAUCGGAAGAGCACACGU
B25: target 1 complement block 1-11 (mixed)
RNA 1: CACCCGUGCAAAAAUGCAGGGGUCUAAAACUGAGCGGAUAACCUCUCUAUGG
RNA 2: GGGAAUGGAUCCACAUCUACGAAUUCGUACCAUAGAGAGGAAUAGGCGAGUCCGAGAUCGGAAGAGCACACGU
B26: target 1 insG 3' of 19,insA 3' of 12 (mixed)
RNA 1: CACCCGUGCAAAAAUGCAGGGGUCUAAAACUGAGCGGAUAACCUCUCUAUGG
RNA 2: GGGAAUGGAUCCACAUCUACGAAUUCGUACCAUGAGAGAGGAUUAUCCGCUCACCGAGAUCGGAAGAGCACACGU
B27: target 1 complement block 2-11 (mixed)
RNA 1: CACCCGUGCAAAAAUGCAGGGGUCUAAAACUGAGCGGAUAACCUCUCUAUGG
RNA 2: GGGAAUGGAUCCACAUCUACGAAUUCGUACCAUAGAGAGGAAUAGGCGAGACCGAGAUCGGAAGAGCACACGU

The data set concerns the target T1, EsCas13d, nuclease-dead (Eubacterium siraeum, UniProt B0MS50, R295A;H300A;R849A;H854A).
T1 sequence: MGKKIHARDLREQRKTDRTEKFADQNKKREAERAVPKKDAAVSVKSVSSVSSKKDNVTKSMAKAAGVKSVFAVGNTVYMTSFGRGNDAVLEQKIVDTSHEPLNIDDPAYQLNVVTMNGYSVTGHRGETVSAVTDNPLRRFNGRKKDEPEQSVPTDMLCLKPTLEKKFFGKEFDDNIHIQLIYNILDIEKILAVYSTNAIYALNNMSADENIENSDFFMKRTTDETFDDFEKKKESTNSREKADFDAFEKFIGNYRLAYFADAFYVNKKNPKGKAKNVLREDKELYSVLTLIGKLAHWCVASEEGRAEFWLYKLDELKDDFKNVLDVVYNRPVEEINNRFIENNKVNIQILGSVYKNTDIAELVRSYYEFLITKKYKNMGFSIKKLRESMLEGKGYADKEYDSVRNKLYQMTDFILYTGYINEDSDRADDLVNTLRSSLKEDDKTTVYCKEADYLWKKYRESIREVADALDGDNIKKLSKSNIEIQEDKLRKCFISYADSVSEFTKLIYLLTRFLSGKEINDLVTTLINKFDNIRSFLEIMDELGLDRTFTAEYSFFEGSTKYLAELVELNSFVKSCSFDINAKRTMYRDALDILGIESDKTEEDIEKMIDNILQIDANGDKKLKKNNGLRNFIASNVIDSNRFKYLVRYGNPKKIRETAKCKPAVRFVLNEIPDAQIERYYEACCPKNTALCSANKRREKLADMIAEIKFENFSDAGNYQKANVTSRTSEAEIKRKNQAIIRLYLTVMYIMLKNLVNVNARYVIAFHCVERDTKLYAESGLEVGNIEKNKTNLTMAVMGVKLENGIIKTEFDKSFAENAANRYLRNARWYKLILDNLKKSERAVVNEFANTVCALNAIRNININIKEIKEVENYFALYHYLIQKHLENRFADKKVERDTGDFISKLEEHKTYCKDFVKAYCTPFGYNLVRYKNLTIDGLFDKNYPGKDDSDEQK
Kind of data set: crRNA (strand 1, pre-loaded); Mg2+; 40 mM Tris-HCl pH 7.5, 150 mM NaCl, 6 mM MgCl2, 1 mM DTT, 0.1% Tween-20, 0.2 mg/ml BSA; 25 C; 10 min per concentration, then washed. The conditions noted are these: tags: His6-TwinStrep-SUMO cleaved; N-terminal SNAP kept (SNAP-Surface 488); label: 3' end held by stalled T7 RNA polymerase.
Molecule B1 gave a Kd of 27.3 ± 1.6 nM.
With B2 the figure was 14.2 ± 0.9 nM; with B3, 5.8 ± 0.4 nM; with B4, 14.5 ± 0.8 nM.
B5 displayed a Kd of 38.2 ± 2.2 nM.
With B6 the figure was 35 ± 5 nM; with B7, 25.8 ± 2.4 nM; with B8, 6.1 ± 0.5 nM.
B9 yielded a Kd of 8.7 ± 0.5 nM.
With B10, the Kd was found to be 9.1 ± 0.4 nM.
B11: the Kd amounted to 65 ± 11 nM.
With B12 the figure was 41 ± 5 nM.
With B13 the figure was 61 ± 10 nM; with B14, 41 ± 7 nM; with B15, 47 ± 4 nM.
In turn, B16 displayed a Kd of 19.6 ± 1.3 nM.
Take B17: the affinity, expressed as Kd, was 11.3 ± 0.9 nM.
Next, B18: 14.6 ± 0.5 nM; B19: 47 ± 7 nM.
With B20 the figure was 9.4 ± 0.8 nM; with B21, 15 ± 0.6 nM; with B22, 16.3 ± 1.6 nM.
Molecule B23 showed a Kd of 50 ± 7 nM.
With B24 the figure was 27.7 ± 3.5 nM; with B25, 13.3 ± 0.5 nM.
With B26, the Kd was about 80 nM.
With B27 the figure was 12.3 ± 0.33 nM.
